Article PMC7734321, “Lesion Recognition and Cleavage of Damage-Containing Quadruplexes and Bulged Structures by DNA Glycosylases”

What was measured:
[1] = biological target: T1, Fpg (formamidopyrimidine-DNA glycosylase) (Escherichia coli, UniProt P05523 2-269); experiment: MST; MST: 50 mM Tris-HCl pH 7.5, 50 mM KCl, 1 mM EDTA, 1 mM DTT, 7% glycerol, 25 C, 10 min, 0.5 uM DNA; authors call Kd values estimates only; settings: protein: recombinant, tags: none (native form without tags)
T1 sequence: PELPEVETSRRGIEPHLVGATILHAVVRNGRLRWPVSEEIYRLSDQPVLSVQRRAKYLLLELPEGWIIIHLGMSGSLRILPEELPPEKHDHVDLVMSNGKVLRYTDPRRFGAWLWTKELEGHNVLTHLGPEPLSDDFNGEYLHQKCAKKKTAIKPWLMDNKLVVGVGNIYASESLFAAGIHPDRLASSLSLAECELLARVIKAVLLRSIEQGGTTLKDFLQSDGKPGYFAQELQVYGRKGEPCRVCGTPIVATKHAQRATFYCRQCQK

[2] = biological target: T2, OGG1 (8-oxoguanine-DNA glycosylase) (Homo sapiens, UniProt O15527 1-345); experiment: as above; settings: protein: recombinant
T2 sequence (O15527 whole entry): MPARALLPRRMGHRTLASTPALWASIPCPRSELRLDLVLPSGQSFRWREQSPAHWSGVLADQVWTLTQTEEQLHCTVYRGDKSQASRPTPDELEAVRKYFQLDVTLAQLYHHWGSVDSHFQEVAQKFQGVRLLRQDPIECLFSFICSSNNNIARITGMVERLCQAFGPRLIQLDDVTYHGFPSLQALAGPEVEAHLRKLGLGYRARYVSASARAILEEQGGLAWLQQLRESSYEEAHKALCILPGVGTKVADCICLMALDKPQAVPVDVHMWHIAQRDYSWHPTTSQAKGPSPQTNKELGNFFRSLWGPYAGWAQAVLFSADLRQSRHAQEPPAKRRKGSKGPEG

[3] = biological target: T1, Fpg (formamidopyrimidine-DNA …); experiment: stopped-flow FRET; DNA bending phase before cleavage; MST: 50 mM Tris-HCl pH 7.5, 50 mM KCl, 1 mM EDTA, 1 mM DTT, 7% glycerol, 25 C, 10 min, 0.5 uM DNA; authors call Kd values estimates only; settings: protein: recombinant; tags: none (native form without tags); label: 5'-FAM on strand 1; blunt
[4] = biological target: T2, OGG1 (8-oxoguanine-DNA glycosylase); experiment: as above; settings: protein: recombinant; label: 5'-FAM on strand 1; blunt
[5] = biological target: NEIL1 (endonuclease VIII-like 1) (Homo sapiens, UniProt Q96FI4 2-390); experiment: MST; MST: 50 mM Tris-HCl pH 7.5, 50 mM KCl, 1 mM EDTA, 1 mM DTT, 7% glycerol, 25 C, 10 min, 0.5 uM DNA; authors call Kd values estimates only; settings: protein: recombinant
NEIL1 (endonuclease VIII-like 1), sequence (Q96FI4 2-390): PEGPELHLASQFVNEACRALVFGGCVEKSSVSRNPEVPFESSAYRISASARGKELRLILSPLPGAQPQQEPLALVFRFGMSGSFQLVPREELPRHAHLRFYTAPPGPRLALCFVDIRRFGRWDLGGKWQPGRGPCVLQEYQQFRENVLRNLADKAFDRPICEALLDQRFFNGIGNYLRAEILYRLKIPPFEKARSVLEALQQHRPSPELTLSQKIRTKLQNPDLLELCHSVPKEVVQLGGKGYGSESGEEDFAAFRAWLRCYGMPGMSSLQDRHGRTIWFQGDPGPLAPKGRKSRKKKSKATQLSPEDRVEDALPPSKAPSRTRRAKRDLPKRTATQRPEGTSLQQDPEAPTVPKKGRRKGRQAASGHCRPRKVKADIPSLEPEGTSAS

NTH1 (endonuclease III) = biological target: T3, NTH1 (endonuclease III) (Homo sapiens, UniProt P78549 1-304); experiment: as above; settings: protein: recombinant
T3 sequence: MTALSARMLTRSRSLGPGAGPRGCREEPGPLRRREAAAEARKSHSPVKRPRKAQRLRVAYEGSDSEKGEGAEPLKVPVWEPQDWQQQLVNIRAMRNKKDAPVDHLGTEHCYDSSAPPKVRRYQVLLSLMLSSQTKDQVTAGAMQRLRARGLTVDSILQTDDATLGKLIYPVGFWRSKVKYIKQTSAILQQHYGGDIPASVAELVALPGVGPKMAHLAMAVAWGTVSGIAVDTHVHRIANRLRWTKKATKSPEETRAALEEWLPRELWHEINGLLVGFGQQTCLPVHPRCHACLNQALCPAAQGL

Nei (endonuclease VIII) = biological target: T4, Nei (endonuclease VIII) (Escherichia coli, UniProt P50465 2-263); experiment: as above; settings: protein: recombinant, tags: none (native form without tags)
T4 sequence: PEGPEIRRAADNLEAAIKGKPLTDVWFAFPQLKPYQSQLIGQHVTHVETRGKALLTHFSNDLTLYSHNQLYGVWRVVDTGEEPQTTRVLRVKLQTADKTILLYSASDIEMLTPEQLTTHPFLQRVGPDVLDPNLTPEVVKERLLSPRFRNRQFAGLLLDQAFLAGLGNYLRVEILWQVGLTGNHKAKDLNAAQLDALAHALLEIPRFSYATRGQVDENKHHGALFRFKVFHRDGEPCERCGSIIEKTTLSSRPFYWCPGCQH

[6] = label: 5'-FAM, 3'-BHQ1, G-quadruplex
[7] = label: 5'-FAM on strand 2, blunt

TTAGGGTTAGGGTTAGGGTTAGGGTT (structured_DNA, G17 = 8-oxoguanine) [Q4-oxoG]
Kd [1, 6]: 1200 ± 400 nM | Kd [2, 6]: 1200 ± 300 nM

B1: Type I oxoG/C (dsDNA)
DNA 1: GCTCAGGTACAGAGCTG
DNA 2: CAGCTCTGTACCTGAGC
modifications: G6 of strand 1 = 8-oxoguanine, opposite C
binding result [3]: binds | binding result [4]: binds

B2: C/G (dsDNA)
DNA 1: GCTCACGTACAGAGCTG
DNA 2: CAGCTCTGTACGTGAGC
Kd [1, 7]: 1600 ± 1100 nM | Kd [2, 7]: 1400 ± 500 nM | Kd [5, 7]: 17000 ± 15000 nM | Kd (NTH1 (endonuclease III); [7]): 700 ± 400 nM | Kd (Nei (endonuclease VIII); [7]): 3100 ± 700 nM

TTAGGGTTAGGGTTAGGGTTAGGGTT (structured_DNA, T14 = thymine glycol) [Q4-Tg]
Kd [5, 6]: 9100 ± 3000 nM | Kd (NTH1 (endonuclease III); [6]): 1300 ± 300 nM | Kd (Nei (endonuclease VIII); [6]): 800 ± 200 nM

TTAGGGTTAGGGTTAGGGTTAGGGTT (structured_DNA) [Q4]
Kd ([1]; G-quadruplex): 1000 ± 300 nM | Kd ([2]; G-quadruplex): 700 ± 200 nM | Kd ([5]; G-quadruplex): 3400 ± 500 nM | Kd (NTH1 (endonuclease III); G-quadruplex): 2500 ± 800 nM | Kd (Nei (endonuclease VIII); G-quadruplex): 900 ± 200 nM
